To fix the notation:
B1: CD2-associated protein, residues 109 to 169; numbered along this chain, Q9Y5K6 (parent)
chain: KKRQCKVLFEYIPQNEDELELKVGDIIDINEEVEEGWWSGTLNNKLGLFPSNFVKELEVTD
B2: F-BAR and double SH3 domains protein 1, residues 467 to 528; numbered along this chain, Q86WN1 (parent)
chain: RALPCPAHVVFRYQAGREDELTITEGEWLEVIEEGDADEWVKARNQHGEVGFVPERYLNFPD

± gives the uncertainty stated by the source.

Variants of B1 are the subject of one data set. Kind of data set: abundance fitness (aPCA) (normalised: wild type 0, dead -1); higher = more abundant; growth selection in yeast, the domain comes from the species named. The note with it: Homo sapiens.
Regarding KKRQCKVLFEYIPQNEDELELKVGDIIDINEEVEEGWWSGTLNNKLGLFPSNFVKELEVTN [D61N], the abundance fitness is -0.273 ± 0.28.
Still for that read-out and setting: then KKRQCKVLFEYIPQNEDELELKVGDIIDINEEVEEGWWSGTLNNKLGLFPSNFVKELEVTH [D61H], with 0.346 ± 0.23.
On the same count and under the same terms, then KKRQCKVLFEYIPQNEDELELKVGDIIDINEEVEEGWWSGTLNNKLGLFPSNFVKELEVTL [D61L], with -0.301 ± 0.14.
On the same count and under the same terms, then KKRQCKVLFEYIPQNEDELELKVGDIIDINEEVEEGWWSGTLNNKLGLFPSNFVKELEVTQ [D61Q], with -0.014 ± 0.24; and KKRQCKVLFEYIPQNEDELELKVGDIIDINEEVEEGWWSGTLNNKLGLFPSNFVKELEVTP [D61P], with 0.04 ± 0.32.
Take KKRQCKVLFEYIPQNEDELELKVGDIIDINEEVEEGWWSGTLNNKLGLFPSNFVKELEVTV [D61V]: the abundance fitness is -0.312 ± 0.24.
Still for that read-out and setting: for KKRQCKVLFEYIPQNEDELELKVGDIIDINEEVEEGWWSGTLNNKLGLFPSNFVKELEVTS [D61S] the value was -0.692 ± 0.34; for KKRQCKVLFEYIPQNEDELELKVGDIIDINEEVEEGWWSGTLNNKLGLFPSNFVKELEVTR [D61R], -0.261 ± 0.18; for KKRQCKVLFEYIPQNEDELELKVGDIIDINEEVEEGWWSGTLNNKLGLFPSNFVKELEVTM [D61M], -0.106 ± 0.24.
On the same count and under the same terms, then KKRQCKVLFEYIPQNEDELELKVGDIIDINEEVEEGWWSGTLNNKLGLFPSNFVKELEVTY [D61Y], with -0.376 ± 0.21; and KKRQCKVLFEYIPQNEDELELKVGDIIDINEEVEEGWWSGTLNNKLGLFPSNFVKELEVTK [D61K], with -0.582 ± 0.35; and KKRQCKVLFEYIPQNEDELELKVGDIIDINEEVEEGWWSGTLNNKLGLFPSNFVKELEVTT [D61T], with -0.329 ± 0.26.

Variants of B2 are the subject of the next data set. The description is as above. To be noted: Homo sapiens.
Turning to Q14F, the abundance fitness is -0.018 ± 0.056.
On the same count and under the same terms, for Q14I the value was -0.261 ± 0.082.
As for Q14W, the abundance fitness is -0.481 ± 0.11.
Still for that read-out and setting: then Q14M, with -0.121 ± 0.081.
On the same count and under the same terms, then Q14P, with -0.636 ± 0.11; and Q14E, with -0.024 ± 0.064; and Q14V, with -0.14 ± 0.049.
Still for that read-out and setting: for Q14G the value was -0.377 ± 0.07; for Q14Y, -0.241 ± 0.084; for Q14S, -0.106 ± 0.053.
Take Q14K: the abundance fitness is -0.078 ± 0.079.
Same read-out and setting: then Q14D, with 0.014 ± 0.086.
As for Q14C, the abundance fitness was -0.363 ± 0.081.
Consider Q14L, for which the abundance fitness is -0.208 ± 0.044.
Consider Q14H, for which the abundance fitness is -0.071 ± 0.072.
With Q14T, the abundance fitness was -0.204 ± 0.069.
Turning to Q14A, the abundance fitness is -0.153 ± 0.063.
The same measure, in the same setting: for Q14N the value was 0.013 ± 0.1; for R1V, -0.519 ± 0.08; for R1F, 0.053 ± 0.099.
For the variant R1H, the abundance fitness was -0.2 ± 0.16.
On the same count and under the same terms, for R1M the value was -0.548 ± 0.24; for R1D, -0.298 ± 0.19; for R1Y, -0.105 ± 0.081.
Same read-out and setting: for R1E the value was -0.431 ± 0.1; for R1S, -0.153 ± 0.058.
Regarding R1I, the abundance fitness is -0.052 ± 0.11.
For R1N, the abundance fitness turned out to be 0.002 ± 0.099.
The same measure, in the same setting: for R1L the value was -0.47 ± 0.1.
With R1K, the abundance fitness is -0.339 ± 0.094.
Consider R1C, for which the abundance fitness was -0.544 ± 0.091.
As for R1Q, the abundance fitness was -0.294 ± 0.22.
As for R1G, the abundance fitness was -0.238 ± 0.057.
The same measure, in the same setting: then V9P, with -0.781 ± 0.18; and V9L, with -0.835 ± 0.075.
Regarding V9G, the abundance fitness was -0.602 ± 0.081.
Still for that read-out and setting: for V9W the value was -0.902 ± 0.13.
As to V9Q, the abundance fitness was -0.607 ± 0.13.
On to V9M, for which the abundance fitness is -1.01 ± 0.2.
On to V9H, for which the abundance fitness is -0.85 ± 0.22.
In the case of V9R, the abundance fitness is -0.788 ± 0.081.
The same measure, in the same setting: then V9T, with -0.531 ± 0.1; and V9D, with -0.764 ± 0.27; and V9A, with 0.002 ± 0.058.
As for V9C, the abundance fitness was -0.32 ± 0.15.
V9E: the abundance fitness is -0.411 ± 0.12.
Turning to V9K, the abundance fitness is -0.598 ± 0.11.
With V9S, the abundance fitness is -0.752 ± 0.09.
For the variant V9Y, the abundance fitness is -0.631 ± 0.15.
Same read-out and setting: for V9I the value was -0.795 ± 0.14; for A15T, -0.714 ± 0.13; for A15R, -0.178 ± 0.043.
Same read-out and setting: for A15L the value was -0.718 ± 0.085.
A15Y: the abundance fitness was -0.875 ± 0.25.
A15G: the abundance fitness was -0.088 ± 0.05.
Consider A15H, for which the abundance fitness is -0.891 ± 0.33.
Same read-out and setting: then A15S, with -0.146 ± 0.052; and A15K, with -0.125 ± 0.092.
In the case of A15F, the abundance fitness is -0.956 ± 0.37.
On the same count and under the same terms, for A15Q the value was -0.27 ± 0.062.
Take A15C: the abundance fitness is -0.536 ± 0.097.
On the same count and under the same terms, for A15E the value was -0.438 ± 0.12.
The same measure, in the same setting: for A15P the value was -0.374 ± 0.078; for A15D, -0.661 ± 0.45.
The same measure, in the same setting: then A15V, with -0.585 ± 0.093; and A15M, with -0.79 ± 0.16; and A7D, with -0.976 ± 0.34.
A7P: the abundance fitness was -0.788 ± 0.12.
For the variant A7Y, the abundance fitness was -0.528 ± 0.21.
For the variant A7G, the abundance fitness was -0.328 ± 0.061.
On to A7T, for which the abundance fitness was -0.917 ± 0.18.
With A7V, the abundance fitness was -0.454 ± 0.057.
On the same count and under the same terms, for A7R the value was -0.617 ± 0.067.
Turning to A7C, the abundance fitness was -0.441 ± 0.21.
On to A7E, for which the abundance fitness was -0.742 ± 0.32.
A7N: the abundance fitness is -0.521 ± 0.19.
For the variant A7M, the abundance fitness was -0.938 ± 0.15.
As for A7Q, the abundance fitness is -0.854 ± 0.15.
On the same count and under the same terms, for A7L the value was -0.866 ± 0.086.
Same read-out and setting: for A7S the value was -0.631 ± 0.074; for A7W, -0.98 ± 0.23.
With A7K, the abundance fitness was -1.05 ± 0.18.
Still for that read-out and setting: then F11M, with 0.141 ± 0.053; and F11A, with 0.11 ± 0.048.
On the same count and under the same terms, then F11Y, with 0.032 ± 0.1; and F11I, with 0.12 ± 0.074; and F11W, with -0.075 ± 0.049.
For the variant F11P, the abundance fitness was -0.774 ± 0.11.
Consider F11C, for which the abundance fitness came to 0.014 ± 0.058.
The same measure, in the same setting: for F11Q the value was -0.103 ± 0.07.
Same read-out and setting: then F11E, with 0.109 ± 0.091; and F11K, with 0.017 ± 0.065; and F11L, with -0.061 ± 0.037.
Same read-out and setting: then F11N, with 0.039 ± 0.083; and F11H, with 0.043 ± 0.095; and F11S, with 0.013 ± 0.051.
F11G: the abundance fitness turned out to be 0.095 ± 0.041.
Turning to F11T, the abundance fitness stood at 0.069 ± 0.056.
On the same count and under the same terms, then F11D, with 0.143 ± 0.092.
Y13I: the abundance fitness is -0.742 ± 0.17.
For Y13C, the abundance fitness was -0.486 ± 0.11.
Same read-out and setting: then Y13T, with -0.629 ± 0.13.
For the variant Y13G, the abundance fitness is -0.463 ± 0.083.
On the same count and under the same terms, then Y13M, with -0.594 ± 0.14; and Y13A, with -0.504 ± 0.079.
Still for that read-out and setting: for Y13E the value was -0.959 ± 0.21; for Y13P, -0.711 ± 0.13; for Y13L, -0.595 ± 0.077.
For the variant Y13F, the abundance fitness was -0.06 ± 0.066.
Same read-out and setting: then Y13N, with -0.38 ± 0.089; and Y13D, with -0.648 ± 0.12.
Turning to Y13S, the abundance fitness was -0.356 ± 0.059.
On to Y13R, for which the abundance fitness was -0.226 ± 0.061.
Turning to Y13V, the abundance fitness was -0.785 ± 0.097.
Same read-out and setting: for Y13H the value was -0.109 ± 0.11; for Y13Q, -0.406 ± 0.12.
Same read-out and setting: for Y13K the value was -0.16 ± 0.094.
Y13W: the abundance fitness was -0.167 ± 0.12.
Still for that read-out and setting: for V10H the value was -0.158 ± 0.23.
On the same count and under the same terms, for V10D the value was -0.109 ± 0.13; for V10F, -0.465 ± 0.14; for V10L, -0.165 ± 0.05.
With V10Q, the abundance fitness is -0.733 ± 0.29.
Same read-out and setting: for V10I the value was -0.021 ± 0.064; for V10P, -1.05 ± 0.25; for V10C, -0.037 ± 0.1.
For V10E, the abundance fitness was -0.247 ± 0.11.
On to V10N, for which the abundance fitness is -0.336 ± 0.24.
The same measure, in the same setting: then V10T, with -0.167 ± 0.099.
On to V10R, for which the abundance fitness was -0.098 ± 0.057.
Same read-out and setting: then V10K, with -0.094 ± 0.085.
Turning to V10M, the abundance fitness was 0.005 ± 0.079.
As for V10Y, the abundance fitness is -0.118 ± 0.1.
On to V10S, for which the abundance fitness is -0.105 ± 0.073.
Take V10W: the abundance fitness is -0.236 ± 0.08.
V10G: the abundance fitness is -0.179 ± 0.049.
Still for that read-out and setting: then C5D, with -1.04 ± 0.4.
Same read-out and setting: for C5W the value was -0.399 ± 0.091.

The values above are taken from the Human Domainome abundance scans (Beltran et al. 2025).
